The conditions of data set [1]: DMSO; cited from earlier work.
The conditions of data set [2]: published reports; cited from earlier work.
In the next data set the test system is hair germ. Description: subcutaneous injection of WNT activator 2 recombinant protein in mice, hair germ activation and hair cycle. The format is in vivo. As to conditions: for hair germ activation: mice (FIG. 12); for telogen to anagen transition: mice (FIG. 13). An excerpt: To further investigate the effect of WNT activator 2 in hair germ activation, mice received subcutaneous injection of WNT activator 2 recombinant protein.

For the molecule `c1cc(-c2cnn3cc(-c4ccc(OCCN5CCCCC5)cc4)cnc23)ccn1` [Dorsomorphin], the solubility result in data set [1] is “soluble in DMSO”. The toxicity result in data set [2] is “low toxicity”.

B1: WNT activator 2 recombinant protein: recombinant Wnt7a protein (wingless-type MMTV integration site family, member 7A), called WNT activator 2 (protein, UniProt O00755 32-349, looked up)
Protein Wnt-7a: LGASIICNKIPGLAPRQRAICQSRPDAIIVIGEGSQMGLDECQFQFRNGRWNCSALGERTVFGKELKVGSREAAFTYAIIAAGVAHAITAACTQGNLSDCGCDKEKQGQYHRDEGWKWGGCSADIRYGIGFAKVFVDAREIKQNARTLMNLHNNEAGRKILEENMKLECKCHGVSGSCTTKTCWTTLPQFRELGYVLKDKYNEAVHVEPVRASRNKRPTFLKIKKPLSYRKPMDTDLVYIEKSPNYCEEDPVTGSVGTQGRACNKTAPQASGCDLMCCGRGYNTHQYARVWQCNCKFHWCCYVKCNTCSERTEMYTCK
Consider B1, for which the hair germ activation result in the data set with hair germ was “induces precocious hair germ activation”; in the data set with hair germ (listed as WNT activator 2) it was “induced precocious hair germ activation”. Also, the “telogen to anagen transition” value is on record as “promotes precocious telogen to anagen transition” with hair germ and “promoted precocious telogen to anagen transition” in the data set with hair germ (listed as WNT activator 2).

The record behind these values is US20150033371A1, “HAIR FOLLICLE STEM CELLS AND METHODS OF USE SAME” (University of Southern California, priority 2011, published 2015).
